Sequences and labels used below:
T1: rat amylin receptor (rat calcitonin receptor + rat RAMP 3) (rat, UniProt P32214 25-516; Q9JJ73 23-147)
T1 construct: whole, on cells; Membranes of BHK tk'ts 13 cells transiently transfected with the rat calcitonin receptor and rat RAMP 3; also called rAmylin-R; rat amylin 3(a) receptor
T1 sequence (looked up) 1: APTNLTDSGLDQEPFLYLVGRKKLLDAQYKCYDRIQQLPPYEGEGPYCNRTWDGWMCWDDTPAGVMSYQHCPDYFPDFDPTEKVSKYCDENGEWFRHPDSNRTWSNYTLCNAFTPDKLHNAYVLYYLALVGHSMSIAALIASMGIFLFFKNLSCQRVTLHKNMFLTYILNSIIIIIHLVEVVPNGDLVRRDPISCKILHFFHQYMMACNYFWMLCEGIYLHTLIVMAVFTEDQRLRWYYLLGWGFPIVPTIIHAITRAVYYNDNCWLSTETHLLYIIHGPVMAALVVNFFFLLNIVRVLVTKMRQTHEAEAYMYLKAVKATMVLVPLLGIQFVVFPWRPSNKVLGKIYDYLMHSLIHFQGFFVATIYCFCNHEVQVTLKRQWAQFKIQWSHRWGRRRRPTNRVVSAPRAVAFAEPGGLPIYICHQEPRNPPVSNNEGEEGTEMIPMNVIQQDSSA
T1 sequence (looked up) 2: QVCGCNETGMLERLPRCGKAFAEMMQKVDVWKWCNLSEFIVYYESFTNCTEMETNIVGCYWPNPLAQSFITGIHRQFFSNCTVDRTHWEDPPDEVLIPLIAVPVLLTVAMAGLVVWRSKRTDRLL

T2: rat calcitonin receptor (rat, UniProt P32214 25-516)
T2 construct: whole, on cells; Membranes of BHK tk'ts 13 cells transiently transfected with the rat calcitonin receptor; also called rCTR; rat calcitonin (a) receptor
T2 sequence (looked up): T1 sequence (looked up) 1

T3: human calcitonin receptor (human, UniProt P30988 25-474)
T3 construct: whole, on cells; Membranes of a BHK tk'ts 13 cell line stably transfected with the human calcitonin receptor; also called hCTR; hCT
T3 sequence (looked up): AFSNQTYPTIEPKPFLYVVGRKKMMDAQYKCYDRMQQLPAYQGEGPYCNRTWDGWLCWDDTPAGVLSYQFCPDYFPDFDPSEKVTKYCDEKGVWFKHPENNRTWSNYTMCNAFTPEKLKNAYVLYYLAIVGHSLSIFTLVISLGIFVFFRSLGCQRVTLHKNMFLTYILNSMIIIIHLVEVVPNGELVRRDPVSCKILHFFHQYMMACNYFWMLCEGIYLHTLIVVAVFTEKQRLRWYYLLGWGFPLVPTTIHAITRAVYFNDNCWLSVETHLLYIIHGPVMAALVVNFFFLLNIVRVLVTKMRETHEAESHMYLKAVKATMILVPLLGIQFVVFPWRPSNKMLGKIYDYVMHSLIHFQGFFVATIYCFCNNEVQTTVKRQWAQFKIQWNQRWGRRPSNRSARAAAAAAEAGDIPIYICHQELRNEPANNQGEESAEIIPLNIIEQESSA

B1: N^α1-[(4S)-4-carboxy-4-(19-carboxynonadecanoylamino)butanoyl]-[Glu14,Arg17,Pro21,Pro27,His34]-h-amylin (peptide)
peptide: {C20 diacid-γGlu}-KCNTATCATQRLAEFLRHSSPNFGAIPSSTNVGHNTY-NH2
modifications: disulfide 2-7
SMILES: CC[C@H](C)[C@H](NC(=O)[C@H](C)NC(=O)CNC(=O)[C@H](Cc1ccccc1)NC(=O)[C@H](CC(N)=O)NC(=O)[C@@H]1CCCN1C(=O)[C@H](CO)NC(=O)[C@H](CO)NC(=O)[C@H](Cc1c[nH]cn1)NC(=O)[C@H](CCCNC(=N)N)NC(=O)[C@H](CC(C)C)NC(=O)[C@H](Cc1ccccc1)NC(=O)[C@H](CCC(=O)O)NC(=O)[C@H](C)NC(=O)[C@H](CC(C)C)NC(=O)[C@H](CCCNC(=N)N)NC(=O)[C@H](CCC(N)=O)NC(=O)[C@@H](NC(=O)[C@H](C)NC(=O)[C@@H]1CSSC[C@H](NC(=O)[C@H](CCCCN)NC(=O)CC[C@H](NC(=O)CCCCCCCCCCCCCCCCCCC(=O)O)C(=O)O)C(=O)N[C@@H](CC(N)=O)C(=O)N[C@@H]([C@@H](C)O)C(=O)N[C@@H](C)C(=O)N[C@@H]([C@@H](C)O)C(=O)N1)[C@@H](C)O)C(=O)N1CCC[C@H]1C(=O)N[C@@H](CO)C(=O)N[C@@H](CO)C(=O)N[C@H](C(=O)N[C@@H](CC(N)=O)C(=O)N[C@H](C(=O)NCC(=O)N[C@@H](Cc1c[nH]cn1)C(=O)N[C@@H](CC(N)=O)C(=O)N[C@H](C(=O)N[C@@H](Cc1ccc(O)cc1)C(N)=O)[C@@H](C)O)C(C)C)[C@@H](C)O
notes: modifications are with respect to human amylin; also called compound 17
B2: N^α1-[(4S)-4-carboxy-4-(19-carboxynonadecanoylamino)butanoyl]-[Glu14,Arg17,Pro21,Pro27,Pro31]-h-amylin (peptide)
peptide: {C20 diacid-γGlu}-KCNTATCATQRLAEFLRHSSPNFGAIPSSTPVGSNTY-NH2
modifications: disulfide 2-7
SMILES: CC[C@H](C)[C@H](NC(=O)[C@H](C)NC(=O)CNC(=O)[C@H](Cc1ccccc1)NC(=O)[C@H](CC(N)=O)NC(=O)[C@@H]1CCCN1C(=O)[C@H](CO)NC(=O)[C@H](CO)NC(=O)[C@H](Cc1c[nH]cn1)NC(=O)[C@H](CCCNC(=N)N)NC(=O)[C@H](CC(C)C)NC(=O)[C@H](Cc1ccccc1)NC(=O)[C@H](CCC(=O)O)NC(=O)[C@H](C)NC(=O)[C@H](CC(C)C)NC(=O)[C@H](CCCNC(=N)N)NC(=O)[C@H](CCC(N)=O)NC(=O)[C@@H](NC(=O)[C@H](C)NC(=O)[C@@H]1CSSC[C@H](NC(=O)[C@H](CCCCN)NC(=O)CC[C@H](NC(=O)CCCCCCCCCCCCCCCCCCC(=O)O)C(=O)O)C(=O)N[C@@H](CC(N)=O)C(=O)N[C@@H]([C@@H](C)O)C(=O)N[C@@H](C)C(=O)N[C@@H]([C@@H](C)O)C(=O)N1)[C@@H](C)O)C(=O)N1CCC[C@H]1C(=O)N[C@@H](CO)C(=O)N[C@@H](CO)C(=O)N[C@H](C(=O)N1CCC[C@H]1C(=O)N[C@H](C(=O)NCC(=O)N[C@@H](CO)C(=O)N[C@@H](CC(N)=O)C(=O)N[C@H](C(=O)N[C@@H](Cc1ccc(O)cc1)C(N)=O)[C@@H](C)O)C(C)C)[C@@H](C)O
notes: modifications are with respect to human amylin; also called compound 31
B3: N^α1-[(4S)-4-carboxy-4-(19-carboxynonadecanoylamino)butanoyl]-[Glu14,Arg17,Pro21,Pro27,His35]-h-amylin (peptide)
peptide: {C20 diacid-γGlu}-KCNTATCATQRLAEFLRHSSPNFGAIPSSTNVGSHTY-NH2
modifications: disulfide 2-7
SMILES: CC[C@H](C)[C@H](NC(=O)[C@H](C)NC(=O)CNC(=O)[C@H](Cc1ccccc1)NC(=O)[C@H](CC(N)=O)NC(=O)[C@@H]1CCCN1C(=O)[C@H](CO)NC(=O)[C@H](CO)NC(=O)[C@H](Cc1c[nH]cn1)NC(=O)[C@H](CCCNC(=N)N)NC(=O)[C@H](CC(C)C)NC(=O)[C@H](Cc1ccccc1)NC(=O)[C@H](CCC(=O)O)NC(=O)[C@H](C)NC(=O)[C@H](CC(C)C)NC(=O)[C@H](CCCNC(=N)N)NC(=O)[C@H](CCC(N)=O)NC(=O)[C@@H](NC(=O)[C@H](C)NC(=O)[C@@H]1CSSC[C@H](NC(=O)[C@H](CCCCN)NC(=O)CC[C@H](NC(=O)CCCCCCCCCCCCCCCCCCC(=O)O)C(=O)O)C(=O)N[C@@H](CC(N)=O)C(=O)N[C@@H]([C@@H](C)O)C(=O)N[C@@H](C)C(=O)N[C@@H]([C@@H](C)O)C(=O)N1)[C@@H](C)O)C(=O)N1CCC[C@H]1C(=O)N[C@@H](CO)C(=O)N[C@@H](CO)C(=O)N[C@H](C(=O)N[C@@H](CC(N)=O)C(=O)N[C@H](C(=O)NCC(=O)N[C@@H](CO)C(=O)N[C@@H](Cc1c[nH]cn1)C(=O)N[C@H](C(=O)N[C@@H](Cc1ccc(O)cc1)C(N)=O)[C@@H](C)O)C(C)C)[C@@H](C)O
notes: modifications are with respect to human amylin; also called compound 18
B4: N^α1-[(4S)-4-carboxy-4-(19-carboxynonadecanoylamino)butanoyl]-[Glu14,Arg17,Pro21,Pro27,Pro29]-h-amylin (peptide)
peptide: {C20 diacid-γGlu}-KCNTATCATQRLAEFLRHSSPNFGAIPSPTNVGSNTY-NH2
modifications: disulfide 2-7
SMILES: CC[C@H](C)[C@H](NC(=O)[C@H](C)NC(=O)CNC(=O)[C@H](Cc1ccccc1)NC(=O)[C@H](CC(N)=O)NC(=O)[C@@H]1CCCN1C(=O)[C@H](CO)NC(=O)[C@H](CO)NC(=O)[C@H](Cc1c[nH]cn1)NC(=O)[C@H](CCCNC(=N)N)NC(=O)[C@H](CC(C)C)NC(=O)[C@H](Cc1ccccc1)NC(=O)[C@H](CCC(=O)O)NC(=O)[C@H](C)NC(=O)[C@H](CC(C)C)NC(=O)[C@H](CCCNC(=N)N)NC(=O)[C@H](CCC(N)=O)NC(=O)[C@@H](NC(=O)[C@H](C)NC(=O)[C@@H]1CSSC[C@H](NC(=O)[C@H](CCCCN)NC(=O)CC[C@H](NC(=O)CCCCCCCCCCCCCCCCCCC(=O)O)C(=O)O)C(=O)N[C@@H](CC(N)=O)C(=O)N[C@@H]([C@@H](C)O)C(=O)N[C@@H](C)C(=O)N[C@@H]([C@@H](C)O)C(=O)N1)[C@@H](C)O)C(=O)N1CCC[C@H]1C(=O)N[C@@H](CO)C(=O)N1CCC[C@H]1C(=O)N[C@H](C(=O)N[C@@H](CC(N)=O)C(=O)N[C@H](C(=O)NCC(=O)N[C@@H](CO)C(=O)N[C@@H](CC(N)=O)C(=O)N[C@H](C(=O)N[C@@H](Cc1ccc(O)cc1)C(N)=O)[C@@H](C)O)C(C)C)[C@@H](C)O
notes: modifications are with respect to human amylin; also called compound 37
B5: N^α1-[(4S)-4-carboxy-4-(19-carboxynonadecanoylamino)butanoyl]-[Glu14,Arg17,Pro21,Pro27,Pro34]-h-amylin (peptide)
peptide: {C20 diacid-γGlu}-KCNTATCATQRLAEFLRHSSPNFGAIPSSTNVGPNTY-NH2
modifications: disulfide 2-7
SMILES: CC[C@H](C)[C@H](NC(=O)[C@H](C)NC(=O)CNC(=O)[C@H](Cc1ccccc1)NC(=O)[C@H](CC(N)=O)NC(=O)[C@@H]1CCCN1C(=O)[C@H](CO)NC(=O)[C@H](CO)NC(=O)[C@H](Cc1c[nH]cn1)NC(=O)[C@H](CCCNC(=N)N)NC(=O)[C@H](CC(C)C)NC(=O)[C@H](Cc1ccccc1)NC(=O)[C@H](CCC(=O)O)NC(=O)[C@H](C)NC(=O)[C@H](CC(C)C)NC(=O)[C@H](CCCNC(=N)N)NC(=O)[C@H](CCC(N)=O)NC(=O)[C@@H](NC(=O)[C@H](C)NC(=O)[C@@H]1CSSC[C@H](NC(=O)[C@H](CCCCN)NC(=O)CC[C@H](NC(=O)CCCCCCCCCCCCCCCCCCC(=O)O)C(=O)O)C(=O)N[C@@H](CC(N)=O)C(=O)N[C@@H]([C@@H](C)O)C(=O)N[C@@H](C)C(=O)N[C@@H]([C@@H](C)O)C(=O)N1)[C@@H](C)O)C(=O)N1CCC[C@H]1C(=O)N[C@@H](CO)C(=O)N[C@@H](CO)C(=O)N[C@H](C(=O)N[C@@H](CC(N)=O)C(=O)N[C@H](C(=O)NCC(=O)N1CCC[C@H]1C(=O)N[C@@H](CC(N)=O)C(=O)N[C@H](C(=O)N[C@@H](Cc1ccc(O)cc1)C(N)=O)[C@@H](C)O)C(C)C)[C@@H](C)O
notes: modifications are with respect to human amylin; also called compound 32

Numbered stars: 1 amine (or outer) side, 2 acyl side, 3 side chain; on linkers, the order of the positions; unused ones are H or OH. Bridge positions count the residues as written; N and C are the ends. * marks the point of attachment. C20 diacid = O=C(O)CCCCCCCCCCCCCCCCCCC(=O)*; γGlu = O=C(O)[C@H](CCC(=O)[*:2])N[*:1]

For one assay, the target named is T1, rat amylin receptor (rat calcitonin …). Description: SPA competition vs 125I-rat amylin, membranes with rat CTR + rat RAMP3 (Assay VI).
One may read the IC50 as the concentration needed to halve the response being measured. For B1, the IC50 came to 2.71 nM.
Same read-out and setting: the value for B2 was 0.619 nM; that for B3 was 0.476 nM.
For B4, the IC50 stood at 0.514 nM.
For B5, the IC50 came to 0.176 nM.

Another assay concerns the target T2, rat calcitonin receptor. Put plainly: IC50 at rCTR divided by IC50 at rAmylin-R (reference).
For B1, the “Ratio rCT/rAmylin binding” value is 35.9.
B2: the “Ratio rCT/rAmylin binding” value was 42.8.
Same read-out and setting: the same measure for B3: 27.3; for B4: 14.3; for B5: 34.

For the next assay, the target named is T2, rat calcitonin receptor. Put plainly: SPA competition vs 125I-calcitonin, membranes with rat CTR (Assay VIII).
Take B1: the IC50 was 97.2 nM.
On the same count and under the same terms, the value for B2 was 26.5 nM; that for B3 was 13 nM; that for B4 was 7.35 nM.
The same measure, in the same setting: the value for B5 was 5.98 nM.

The next assay deals with T3, human calcitonin receptor. Description: IC50 at hCTR divided by IC50 at hAmylin-R (reference). The method in brief: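 Membranes (35 ng/μL final) + SPA beads, 50 mM Hepes pH 7.4 buffer with 1 mM CaCl2, 5 mM MgCl₂, 0.1% OA, 0.02% Tween20; 120 min, 25° C, shaking; centrifuged, counted; IC₅₀ by one-site binding competition.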
Consider B1, for which the “Ratio hCT/hAmylin binding” value was found to be 12.5.
The same measure, in the same setting: the value for B2 was 16; that for B3 was 9.2; that for B4 was 2.3.
Same read-out and setting: the same measure for B5: 10.9.

Source of the values: US20140087995A1 (published 2014).
